Reference: patent US20240366811A1, “RA[…] P[…] USES THEREOF” (TIANJIN CONJUSTAR BIOLOGICS CO., LTD., priority 2023, published 2024)
Read-outs that look alike come from different tables or passages of the source. *1 amine or outer side, *2 acyl side, *3 side chain or, on linkers, in order; H or OH if unused. Where a SMILES comes first, the peptide text is derived from it. Bridges are numbered along the chain shown (N, C = ends). [ ]: non-standard residue; d: D form. The star is where a group is joined. TATA = O=C(CC[*:1])N1CN(C(=O)CC[*:2])CN(C(=O)CC[*:3])C1; NOTA = O=C(O)CN1CCN(CC(=O)O)CCN(CC(=O)*)CC1; Hyp = O=C(O)[C@@H]1C[C@@H](O)CN1; hArg = N=C(N)NCCCC[C@H](N)C(=O)O; Pen = CC(C)(S)[C@H](N)C(=O)O; βAla = NCCC(=O)O; Sar = CNCC(=O)O

Legend:
[1] = in vivo; conditions: mouse, iv, 11.1 MBq, total radioactivity; for tissue uptake at 4 h: dissected tissue, single iv 11.1 MBq
Protocol: (§1) In vivo radiobiological distribution assay: mice in the PET/CT imaging group were sacrificed immediately after the end of 4 h imaging, and mice in the inhibition group were sacrificed after 1 h imaging. Tissue samples of tumor, blood, heart, lung, liver, spleen, kidney, stomach, intestine, bone, muscle, and brain were collected by dissection, weighed and their radioactive counts were recorded. The probe uptake value in each tissue and organ of each experimental animal is expressed as radioactivity per gram of tissue as a percentage of the dose administered (% ID/g).

[2] = tested on: PC-3 tumor-bearing mice; conditions: 4 h, dissected tissue uptake ratio
Protocol: as §1
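Further: dissected tissues were weighed and their radioactivity counted, uptake given as percent of administered dose per gram, tissue ratios derived from these values.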

CC(C)C[C@@H]1NC(=O)[C@@H]2CSCCC(=O)N3CN(CN(C3)C(=O)CCSC(C)(C)[C@@H](C(N)=O)NC(=O)[C@H](CCCCNC(=N)N)NC(=O)[C@H](Cc3c[nH]c4ccccc34)NC(=O)[C@@H](CC(=O)O)NC(=O)[C@@H]3CCCN3C(=O)[C@H](Cc3c[nH]cn3)NC1=O)C(=O)CCSC[C@H](NC(=O)[C@@H]1CC(=O)NCCCC[C@H](NC(=O)CN(C)C(=O)CN(C)C(=O)CN(C)C(=O)CN(C)C(=O)CN(C)C(=O)CN(C)C(=O)CN(C)C(=O)CN(C)C(=O)CN(C)C(=O)CN(C)C(=O)CCNC(=O)CN3CCN(CC(=O)O)CCN(CC(=O)O)CC3)C(=O)N[C@@H](CCCCNC(=N)N)C(=O)N1)C(=O)N1C[C@H](O)C[C@H]1C(=O)N[C@@H](CC(C)C)C(=O)N[C@@H](C(C)C)C(=O)N[C@@H](CC(N)=O)C(=O)N1CCC[C@H]1C(=O)N[C@@H](CC(C)C)C(=O)N2 [Example 3] ({NOTA-βAla}-[Sar][Sar][Sar][Sar][Sar][Sar][Sar][Sar][Sar][Sar]K[hArg]DC[Hyp]LVNPLCLHP[dD]W[hArg][Pen]-NH2; lactam 11-13; linker 14-21-28 via TATA)
tissue uptake at 4 h ([1]; nude mice, heart, radioactive uptake: Heart, mouse S1): 0.31 %ID/g | tissue uptake at 4 h ([1]; nude mice, intestine, radioactive uptake: Intestine, Mean ± SD of S1-S3): 0.31 ± 0.1 %ID/g | tissue uptake at 4 h ([1]; nude mice, intestine, radioactive uptake: Intestine, mouse S1): 0.42 %ID/g | tissue uptake at 4 h ([1]; nude mice, intestine, radioactive uptake: Intestine, mouse S2): 0.29 %ID/g | tissue uptake at 4 h ([1]; nude mice, intestine, radioactive uptake: Intestine, mouse S3): 0.22 %ID/g | tissue uptake at 4 h ([1]; nude mice, muscle, radioactive uptake: Muscle, Mean ± SD of S1-S3): 0.5 ± 0.23 %ID/g | tissue uptake at 4 h ([1]; nude mice, muscle, radioactive uptake: Muscle, mouse S1): 0.46 %ID/g | tissue uptake at 4 h ([1]; nude mice, muscle, radioactive uptake: Muscle, mouse S2): 0.76 %ID/g | tissue uptake at 4 h ([1]; nude mice, muscle, radioactive uptake: Muscle, mouse S3): 0.3 %ID/g | tissue to tissue ratio at 4 h ([1]; nude mice, tumor and spleen): 7.2 ± 3 | tissue to tissue ratio at 4 h ([1]; nude mice, tumor/blood): 21.9 ± 16.7 | tissue to tissue ratio at 4 h ([1]; nude mice, tumor/bone): 4.23 ± 2.87 | tissue to tissue ratio at 4 h ([1]; nude mice, tumor/brain): 58.8 ± 28.7 | tissue to tissue ratio at 4 h ([1]; nude mice, tumor/intestine): 15.7 ± 10.3 | tissue to tissue ratio at 4 h ([1]; nude mice, tumor/muscle): 11.3 ± 8.54 | tissue to tissue ratio at 4 h ([1]; nude mice, tumor/stomach): 24 ± 9.97 | tissue uptake at 4 h ([1]; nude, blood, radioactive uptake: Blood, Mean ± SD of S1-S3): 0.31 ± 0.22 %ID/g | tissue uptake at 4 h ([1]; nude, blood, radioactive uptake: Blood, mouse S1): 0.2 %ID/g | tissue uptake at 4 h ([1]; nude, blood, radioactive uptake: Blood, mouse S2): 0.56 %ID/g | tissue uptake at 4 h ([1]; nude, blood, radioactive uptake: Blood, mouse S3): 0.16 %ID/g | tissue uptake at 4 h ([1]; nude, bone, radioactive uptake: Bone, Mean ± SD of S1-S3): 1.23 ± 0.43 %ID/g | tissue uptake at 4 h ([1]; nude, bone, radioactive uptake: Bone, mouse S1): 1.15 %ID/g | tissue uptake at 4 h ([1]; nude, bone, radioactive uptake: Bone, mouse S2): 1.69 %ID/g | tissue uptake at 4 h ([1]; nude, bone, radioactive uptake: Bone, mouse S3): 0.84 %ID/g | tissue uptake at 4 h ([1]; nude, brain, radioactive uptake: Brain, Mean ± SD of S1-S3): 0.08 ± 0.03 %ID/g | tissue uptake at 4 h ([1]; nude, brain, radioactive uptake: Brain, mouse S1): 0.11 %ID/g | tissue uptake at 4 h ([1]; nude, brain, radioactive uptake: Brain, mouse S2): 0.05 %ID/g | tissue uptake at 4 h ([1]; nude, brain, radioactive uptake: Brain, mouse S3): 0.06 %ID/g | tissue uptake at 4 h ([1]; nude, heart, radioactive uptake: Heart, Mean ± SD of S1-S3): 0.26 ± 0.06 %ID/g | tissue uptake at 4 h ([1]; nude, heart, radioactive uptake: Heart, mouse S2): 0.29 %ID/g | tissue uptake at 4 h ([1]; nude, heart, radioactive uptake: Heart, mouse S3): 0.2 %ID/g | tissue uptake at 4 h ([1]; nude, kidney, radioactive uptake: Kidney, Mean ± SD of S1-S3): 57 ± 5.7 %ID/g | tissue uptake at 4 h ([1]; nude, kidney, radioactive uptake: Kidney, mouse S1): 62.7 %ID/g | tissue uptake at 4 h ([1]; nude, kidney, radioactive uptake: Kidney, mouse S2): 51.3 %ID/g | tissue uptake at 4 h ([1]; nude, kidney, radioactive uptake: Kidney, mouse S3): 57.1 %ID/g | tissue uptake at 4 h ([1]; nude, liver, radioactive uptake: Liver, Mean ± SD of S1-S3): 0.62 ± 0.11 %ID/g | tissue uptake at 4 h ([1]; nude, liver, radioactive uptake: Liver, mouse S1): 0.66 %ID/g | tissue uptake at 4 h ([1]; nude, liver, radioactive uptake: Liver, mouse S2): 0.5 %ID/g | tissue uptake at 4 h ([1]; nude, liver, radioactive uptake: Liver, mouse S3): 0.71 %ID/g | tissue uptake at 4 h ([1]; nude, lung, radioactive uptake: Lung, Mean ± SD of S1-S3): 0.42 ± 0.1 %ID/g | tissue uptake at 4 h ([1]; nude, lung, radioactive uptake: Lung, mouse S1): 0.49 %ID/g | tissue uptake at 4 h ([1]; nude, lung, radioactive uptake: Lung, mouse S2): 0.46 %ID/g | tissue uptake at 4 h ([1]; nude, lung, radioactive uptake: Lung, mouse S3): 0.31 %ID/g | tissue uptake at 4 h ([1]; nude, spleen, radioactive uptake: Spleen, Mean ± SD of S1-S3): 0.6 ± 0.06 %ID/g | tissue uptake at 4 h ([1]; nude, spleen, radioactive uptake: Spleen, mouse S1): 0.66 %ID/g | tissue uptake at 4 h ([1]; nude, spleen, radioactive uptake: Spleen, mouse S2): 0.54 %ID/g | tissue uptake at 4 h ([1]; nude, spleen, radioactive uptake: Spleen, mouse S3): 0.59 %ID/g | tissue uptake at 4 h ([1]; nude, stomach, radioactive uptake: Stomach, Mean ± SD of S1-S3): 0.18 ± 0.04 %ID/g | tissue uptake at 4 h ([1]; nude, stomach, radioactive uptake: Stomach, mouse S1): 0.22 %ID/g | tissue uptake at 4 h ([1]; nude, stomach, radioactive uptake: Stomach, mouse S2): 0.15 %ID/g | tissue uptake at 4 h ([1]; nude, stomach, radioactive uptake: Stomach, mouse S3): 0.17 %ID/g | tissue to tissue ratio at 4 h ([1]; nude, tumor and heart): 18 ± 11.4 | tissue to tissue ratio at 4 h ([1]; nude, tumor and lung): 11.3 ± 7.18 | tissue uptake at 4 h ([1]; nude, tumor, radioactive uptake: Tumor, Mean ± SD of S1-S3): 4.38 ± 1.94 %ID/g | tissue uptake at 4 h ([1]; nude, tumor, radioactive uptake: Tumor, mouse S1): 5.03 %ID/g | tissue uptake at 4 h ([1]; nude, tumor, radioactive uptake: Tumor, mouse S2): 2.19 %ID/g | tissue uptake at 4 h ([1]; nude, tumor, radioactive uptake: Tumor, mouse S3): 5.9 %ID/g | Tumor/blood ([2]; mouse S1): 24.89 | Tumor/bone ([2]; mouse S1): 4.39 | Tumor/brain ([2]; mouse S1): 44.40 | Tumor/heart ([2]; mouse S1): 16.45 | Tumor/intestine ([2]; mouse S1): 12.02 | Tumor/kidney ([2]; mouse S1): 0.08 | Tumor/liver ([2]; mouse S1): 7.63 | Tumor/lung ([2]; mouse S1): 10.25 | Tumor/muscle ([2]; mouse S1): 11.01 | Tumor/spleen ([2]; mouse S1): 7.58 | Tumor/stomach ([2]; mouse S1): 22.84 | Tumor/blood ([2]; mouse S2): 3.88 | Tumor/bone ([2]; mouse S2): 1.30 | Tumor/brain ([2]; mouse S2): 40.18 | Tumor/heart ([2]; mouse S2): 7.47 | Tumor/intestine ([2]; mouse S2): 7.64 | Tumor/kidney ([2]; mouse S2): 0.04 | Tumor/liver ([2]; mouse S2): 4.34 | Tumor/lung ([2]; mouse S2): 4.78 | Tumor/muscle ([2]; mouse S2): 2.89 | Tumor/spleen ([2]; mouse S2): 4.03 | Tumor/stomach ([2]; mouse S2): 14.71 | Tumor/blood ([2]; mouse S3): 36.90 | Tumor/bone ([2]; mouse S3): 7.02 | Tumor/brain ([2]; mouse S3): 91.90 | Tumor/heart ([2]; mouse S3): 30.12 | Tumor/intestine ([2]; mouse S3): 27.31 | Tumor/kidney ([2]; mouse S3): 0.10 | Tumor/liver ([2]; mouse S3): 8.30 | Tumor/lung ([2]; mouse S3): 19.01
